Tests used:
[1] = target: commercial whole IL-15Rα fusion protein (rIL-15Rα-Fc) (UniProt Q13261)
[2] = target: recombinant interleukin-15Rα-sushi-Fc fusion protein (human)
[3] = target: recombinant interleukin-15Rα-sushi-Fc fusion protein (human); remark: listed apart in the source
[4] = target: recombinant interleukin-15Rα-sushi-Fc fusion protein (human); assay: pull-down; rILR-Fc/PhA NPs incubated with rIL-15 at 37 °C for 30 min in PBS; nanoparticles adsorbed on a Protein A agarose column; free rIL-15 quantified by sandwich ELISA
[5] = target: commercial whole IL-15Rα fusion protein (rIL-15Rα-Fc) (UniProt Q13261); assay: not stated; affinity shown in Figure S3A,B; method not told in the main text
[6] = target: recombinant interleukin-15Rα-sushi-Fc fusion protein (human); assay: as above

Chain of recombinant wild-type IL-15 (P40933 49-162): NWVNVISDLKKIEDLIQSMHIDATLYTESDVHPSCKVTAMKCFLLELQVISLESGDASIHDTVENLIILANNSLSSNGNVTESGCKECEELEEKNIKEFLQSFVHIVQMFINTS
Chain of commercial whole IL-15Rα fusion protein (rIL-15Rα-Fc) (Q13261 31-205): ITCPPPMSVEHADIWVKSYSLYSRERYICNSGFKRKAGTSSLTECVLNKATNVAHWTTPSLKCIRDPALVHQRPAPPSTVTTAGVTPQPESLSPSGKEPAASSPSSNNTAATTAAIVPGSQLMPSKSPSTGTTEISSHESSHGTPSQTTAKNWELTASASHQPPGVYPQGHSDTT

| Substance | EC50 of M-07e cell proliferation, rIL-15-wt pre-associated with rIL-15Rα-Fc (rIL-15-wt alone: 3.26 nM) [1] [nM] | EC50 of M-07e cell proliferation, rIL-15-wt pre-associated with rILR-Fc (rIL-15-wt alone: 3.26 nM) [2] [nM] | serum elimination half-life (t1/2) of rIL-15 in mice after i.v. injection of rILR-Fc/PhA/rIL-15 NPs (free rIL-15: 20.24 min) [3] [min] | encapsulation efficiency (percent of rIL-15 held by the rILR-Fc/PhA/rIL-15 NPs) [4] [%] | molar ratio of rIL-15 to rILR-Fc in the nanoparticles [4] | affinity [5] [nM] | affinity [6] [nM] |
| --- | --- | --- | --- | --- | --- | --- | --- |
| recombinant wild-type IL-15 (from UniProt P40933 49-162) (ligand) | 1.65 | 1.62 | – | – | – | – | – |
| recombinant IL-15 (N72D-mutated human IL-15) (ligand) | – | – | 39.4 | 99.5 | 0.81 | 0.115 | 0.24 |
